Positions of bridges follow the written chain, without caps; N, C: chain ends. Non-standard residues stand in square brackets, D forms with d. No end group written: not given here. *: point of attachment. Acetyl(2-(4-imidazolyl)) = O=C(Cc1c[nH]cn1)*; Aib = CC(C)(N)C(=O)O
T1: human GIP receptor (human, UniProt P48546 22-466)
T1 sequence (looked up): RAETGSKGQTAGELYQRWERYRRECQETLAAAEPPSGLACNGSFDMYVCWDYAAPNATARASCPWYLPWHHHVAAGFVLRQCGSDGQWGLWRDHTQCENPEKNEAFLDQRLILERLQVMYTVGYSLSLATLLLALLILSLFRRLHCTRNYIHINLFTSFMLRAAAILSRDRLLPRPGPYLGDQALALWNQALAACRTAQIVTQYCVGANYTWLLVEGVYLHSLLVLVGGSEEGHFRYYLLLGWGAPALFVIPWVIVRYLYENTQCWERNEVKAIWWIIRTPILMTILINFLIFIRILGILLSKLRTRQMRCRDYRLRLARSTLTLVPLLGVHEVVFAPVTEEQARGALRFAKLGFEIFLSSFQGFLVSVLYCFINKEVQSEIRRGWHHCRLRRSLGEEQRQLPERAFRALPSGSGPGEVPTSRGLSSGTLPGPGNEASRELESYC

B1: triple agonist of SEQ ID NO: 74 (peptide)
peptide: [Acetyl(2-(4-imidazolyl))][Aib]QGTFTSDYSKCLDEKRAKEFVQWLLDHHPSSGQPPPS
modifications: bridge 16-20
B2: triple agonist of SEQ ID NO: 81 (peptide)
peptide: [Acetyl(2-(4-imidazolyl))][Aib]QGTFTSDYSKYLDEKRQKEFVQWLLNTC
modifications: bridge 16-20
B3: triple agonist of SEQ ID NO: 66 (peptide)
peptide: Y[Aib]QGTFTSDYSKYLDECRAKDFVQWLLDHHPSSGQPPPS
modifications: bridge 16-20
B4: triple agonist of SEQ ID NO: 68 (peptide)
peptide: Y[Aib]QGTFTSDYSKCLDEKAAKEFVQWLLDHHPSSGQPPPS
modifications: bridge 16-20
B5: triple agonist of SEQ ID NO: 85 (peptide)
peptide: [Acetyl(2-(4-imidazolyl))][Aib]QGTFTSDYSIAMDEIHQKDFVNWLLAQC
modifications: bridge 16-20
B6: triple agonist of SEQ ID NO: 65 (peptide)
peptide: H[Aib]QGTFTSDYSKCLDEKRAKEFVQWLLDHHPSSGQPPPS
modifications: bridge 16-20
B7: triple agonist of SEQ ID NO: 78 (peptide)
peptide: H[Aib]QGTFTSDYSKYLDEKRQKEFVQWLLDTKC
modifications: bridge 16-20
B8: triple agonist of SEQ ID NO: 9 (peptide)
peptide: H[Aib]QGTFTSDVSKYLDGQAAQEFVAWLLAGC
B9: triple agonist of SEQ ID NO: 61 (peptide)
peptide: {Acetyl(2-(4-imidazolyl))}-[Aib]QGTFTSDYSIAMDEIACKDFVNWLLNTK
modifications: bridge 15-19
B10: triple agonist of SEQ ID NO: 63 (peptide)
peptide: {Acetyl(2-(4-imidazolyl))}-[Aib]QGTFTSDCSKYLDERAAQDFVQWLLDGGPSSGAPPPS
modifications: ends and bridges not checked
B11: triple agonist of SEQ ID NO: 67 (peptide)
peptide: Y[Aib]QGTFTSDYSKYLDECAAKDFVQWLLDHHPSSGQPPPS
modifications: bridge 16-20
B12: triple agonist of SEQ ID NO: 73 (peptide)
peptide: [Acetyl(2-(4-imidazolyl))][Aib]QGTFTSDYSKYLDECRAKEFVQWLLDHHPSSGQPPPS
modifications: bridge 16-20
B13: triple agonist of SEQ ID NO: 86 (peptide)
peptide: [Acetyl(2-(4-imidazolyl))][Aib]QGTFTSDYSKYLDEKRQKEFVNWLLAQC
modifications: bridge 16-20
B14: triple agonist of SEQ ID NO: 64 (peptide)
peptide: Y[Aib]QGTFTSDYSKYLDECAAKEFVQWLLDHHPSSGQPPPS
modifications: bridge 16-20
B15: triple agonist of SEQ ID NO: 77 (peptide)
peptide: Y[Aib]QGTFTSDYSKYLDEKAAKDFVQWLLDHHPSSGQPPPSC
modifications: bridge 16-20
B16: triple agonist of SEQ ID NO: 7 (peptide)
peptide: H[Aib]QGTFTSDVSKYLDGQAAKEFVAWLLKGC
B17: triple agonist of SEQ ID NO: 70 (peptide)
peptide: Y[Aib]QGTFTSDYSKCLDEKRAKDFVQWLLDHHPSSGQPPPS
modifications: bridge 16-20
B18: triple agonist of SEQ ID NO: 80 (peptide)
peptide: H[Aib]EGTFTSDYSIAMDEIHQKDFVDWLLAEKC
modifications: bridge 16-20
B19: triple agonist of SEQ ID NO: 75 (peptide)
peptide: Y[Aib]QGTFTSDYSKYLDEKAAKEFVQWLLDHHPSSGQPPPSC
modifications: bridge 16-20
B20: triple agonist of SEQ ID NO: 8 (peptide)
peptide: H[Aib]QGTFTSDVSKYLDGQAAQEFVAWLLKGC
B21: triple agonist of SEQ ID NO: 84 (peptide)
peptide: [Acetyl(2-(4-imidazolyl))][Aib]EGTFTSDYSIAMDEIHQKDFVDWLLAEC
modifications: bridge 16-20
B22: triple agonist of SEQ ID NO: 71 (peptide)
peptide: Y[Aib]QGTFTSDYSKYLDERACKDFVQWLLDHHPSSGQPPPS
modifications: bridge 16-20
B23: triple agonist of SEQ ID NO: 76 (peptide)
peptide: Y[Aib]QGTFTSDYSKYLDEKRAKDFVQWLLDHHPSSGQPPPSC
modifications: bridge 16-20
B24: triple agonist of SEQ ID NO: 62 (peptide)
peptide: {Acetyl(2-(4-imidazolyl))}-[Aib]QGTFTSDKSKYLDERAAQDFVQWLLDGGPSSGAPPPS
modifications: ends and bridges not checked
B25: triple agonist of SEQ ID NO: 83 (peptide)
peptide: [Acetyl(2-(4-imidazolyl))][Aib]EGTFTSDYSIAMDEIHQKDFVNWLLAQC
modifications: bridge 16-20
B26: triple agonist of SEQ ID NO: 72 (peptide)
peptide: Y[Aib]QGTFTSDCSKYLDERAAKDFVQWLLDHHPSSGQPPPS
modifications: bridge 16-20
B27: triple agonist of SEQ ID NO: 79 (peptide)
peptide: H[Aib]EGTFTSDYSIAMDEIHQKDFVNWLLAQKC
modifications: bridge 16-20
B28: triple agonist of SEQ ID NO: 69 (peptide)
peptide: Y[Aib]QGTFTSDYSKCLDERAAKEFVQWLLDHHPSSGQPPPS
modifications: bridge 16-20
B29: triple agonist of SEQ ID NO: 82 (peptide)
peptide: [Acetyl(2-(4-imidazolyl))][Aib]QGTFTSDYSKYLDEKRQKEFVQWLLDTC
modifications: bridge 16-20

Molecular target: human GLP-1 receptor (human, UniProt P43220 24-463)
Assay: cell-based or functional assay

First: B1
Second: B2
The “In vitro Activity Compared to Native Peptide (%) vs. GLP-1” value of the first is higher: 12.9% for the first, 7.8% for the second.

Going from B3 to B4, the “In vitro Activity Compared to Native Peptide (%) vs. GLP-1” value rises from 15.8% to 27.9%.

Compared with B5, B6 is higher in “In vitro Activity Compared to Native Peptide (%) vs. GLP-1” value: 4.3% for the first, 95.4% for the second.

First: B7
Second: B8
The “In vitro Activity Compared to Native Peptide (%) vs. GLP-1” value of the first is higher: 51% for the first, 32.1% for the second.

Compared with B9, B10 is lower in “In vitro Activity Compared to Native Peptide (%) vs. GLP-1” value: 59.8% for the first, 15.3% for the second.

First: B11
Second: B12
The “In vitro Activity Compared to Native Peptide (%) vs. GLP-1” value of the first is higher: 28.5% for the first, 22.6% for the second.

Going from B13 to B14, the “In vitro Activity Compared to Native Peptide (%) vs. GLP-1” value rises from 28.4% to 64.6%.

Going from B15 to B16, the “In vitro Activity Compared to Native Peptide (%) vs. GLP-1” value falls from 38.7% to 13.7%.

First: B17
Second: B18
The “In vitro Activity Compared to Native Peptide (%) vs. GLP-1” value of the first is higher: 15.1% for the first, 8.1% for the second.

First: B19
Second: B20
The “In vitro Activity Compared to Native Peptide (%) vs. GLP-1” value of the first is higher: 35.1% for the first, 14.2% for the second.

Compared with B21, B22 is higher in “In vitro Activity Compared to Native Peptide (%) vs. GLP-1” value: 4.2% for the first, 90.1% for the second.

Compared with B23, B24 is lower in “In vitro Activity Compared to Native Peptide (%) vs. GLP-1” value: 10.3% for the first, 5.2% for the second.

Compared with B25, B26 is lower in “In vitro Activity Compared to Native Peptide (%) vs. GLP-1” value: 47.3% for the first, 11.5% for the second.

Going from B27 to B28, the “In vitro Activity Compared to Native Peptide (%) vs. GLP-1” value falls from 41.5% to 24.3%.

For B29, the “In vitro Activity Compared to Native Peptide (%) vs. GLP-1” value was 9.5%.

Molecular target: T1, human GIP receptor
Assay: cell-based or functional assay

Compared with B1, B2 is lower in “In vitro Activity Compared to Native Peptide (%) vs. GIP” value: 1% for the first, less than 0.1% for the second.

Going from B3 to B4, the “In vitro Activity Compared to Native Peptide (%) vs. GIP” value rises from 17.2% to 107%.

Compared with B5, B6 is higher in “In vitro Activity Compared to Native Peptide (%) vs. GIP” value: 0.3% for the first, 11.6% for the second.

First: B7
Second: B8
The “In vitro Activity Compared to Native Peptide (%) vs. GIP” value of the first is higher: 0.12% for the first, less than 0.1% for the second.

Compared with B9, B10 is lower in “In vitro Activity Compared to Native Peptide (%) vs. GIP” value: 2.8% for the first, less than 0.1% for the second.

Going from B11 to B12, the “In vitro Activity Compared to Native Peptide (%) vs. GIP” value falls from 39.8% to 3%.

Going from B13 to B14, the “In vitro Activity Compared to Native Peptide (%) vs. GIP” value rises from 0.2% to 92.9%.

Going from B15 to B16, the “In vitro Activity Compared to Native Peptide (%) vs. GIP” value falls from 35.5% to less than 0.1%.

Going from B17 to B18, the “In vitro Activity Compared to Native Peptide (%) vs. GIP” value falls from 64.4% to 0.1%.

Compared with B19, B20 is lower in “In vitro Activity Compared to Native Peptide (%) vs. GIP” value: 18% for the first, less than 0.1% for the second.

First: B21
Second: B22
The “In vitro Activity Compared to Native Peptide (%) vs. GIP” value of the first is lower: less than 0.1% for the first, 94.7% for the second.

Going from B23 to B24, the “In vitro Activity Compared to Native Peptide (%) vs. GIP” value falls from 11.7% to less than 0.1%.

Compared with B25, B26 is higher in “In vitro Activity Compared to Native Peptide (%) vs. GIP” value: 0.4% for the first, 1.6% for the second.

First: B27
Second: B28
The “In vitro Activity Compared to Native Peptide (%) vs. GIP” value of the first is lower: 1.4% for the first, 62.8% for the second.

B29 was tested, and the “In vitro Activity Compared to Native Peptide (%) vs. GIP” value was less than 0.1%.

Molecular target: human GCG receptor (human, UniProt P47871 26-477)
Assay: cell-based or functional assay

human GCG receptor, sequence (P47871 26-477): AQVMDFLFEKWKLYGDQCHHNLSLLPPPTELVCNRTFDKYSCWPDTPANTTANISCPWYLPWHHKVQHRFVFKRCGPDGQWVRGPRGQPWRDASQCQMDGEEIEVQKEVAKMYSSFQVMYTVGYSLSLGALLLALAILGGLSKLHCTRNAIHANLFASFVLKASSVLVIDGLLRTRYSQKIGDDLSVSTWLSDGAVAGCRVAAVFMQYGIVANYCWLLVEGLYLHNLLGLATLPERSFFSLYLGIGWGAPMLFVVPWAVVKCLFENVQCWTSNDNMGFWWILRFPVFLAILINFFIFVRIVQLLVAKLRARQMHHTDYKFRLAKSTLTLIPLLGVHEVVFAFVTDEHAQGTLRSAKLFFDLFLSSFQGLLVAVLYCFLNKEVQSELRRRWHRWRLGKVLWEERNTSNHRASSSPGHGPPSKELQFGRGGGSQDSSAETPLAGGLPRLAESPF

Going from B1 to B2, the “In vitro Activity Compared to Native Peptide (%) vs. Glucagon” value falls from 0.9% to 0.3%.

Going from B3 to B4, the “In vitro Activity Compared to Native Peptide (%) vs. Glucagon” value falls from 172% to 8.8%.

Compared with B5, B6 is higher in “In vitro Activity Compared to Native Peptide (%) vs. Glucagon” value: less than 0.1% for the first, 25.2% for the second.

Compared with B7, B8 is lower in “In vitro Activity Compared to Native Peptide (%) vs. Glucagon” value: 14% for the first, 0.13% for the second.

B9 and B10 cannot be ordered by “In vitro Activity Compared to Native Peptide (%) vs. Glucagon” value: less than 0.1% for the first, less than 0.1% for the second.

First: B11
Second: B12
The “In vitro Activity Compared to Native Peptide (%) vs. Glucagon” value of the first is higher: 46.2% for the first, 5.4% for the second.

First: B13
Second: B14
The “In vitro Activity Compared to Native Peptide (%) vs. Glucagon” value of the first is lower: 0.4% for the first, 60.1% for the second.

Compared with B15, B16 is lower in “In vitro Activity Compared to Native Peptide (%) vs. Glucagon” value: 12.2% for the first, less than 0.1% for the second.

First: B17
Second: B18
The “In vitro Activity Compared to Native Peptide (%) vs. Glucagon” value of the first is higher: 71.3% for the first, 0% for the second.

First: B19
Second: B20
The “In vitro Activity Compared to Native Peptide (%) vs. Glucagon” value of the first is higher: 8.5% for the first, 0.1% for the second.

Going from B21 to B22, the “In vitro Activity Compared to Native Peptide (%) vs. Glucagon” value rises from less than 0.1% to 12.7%.

First: B23
Second: B24
The “In vitro Activity Compared to Native Peptide (%) vs. Glucagon” value of the first is higher: 47.6% for the first, less than 0.1% for the second.

Going from B25 to B26, the “In vitro Activity Compared to Native Peptide (%) vs. Glucagon” value falls from 1.3% to 1%.

Compared with B27, B28 is higher in “In vitro Activity Compared to Native Peptide (%) vs. Glucagon” value: 4.9% for the first, 9.6% for the second.

B29 was tested, and the “In vitro Activity Compared to Native Peptide (%) vs. Glucagon” value was 1.1%.

— patent US20230118307A1, “THERAPEUTIC USE OF LONG-ACTING CONJUGATE OF TRIPLE AGONIST HAVING ACTIVITIES TO ALL OF GLUCAGON/GLP-1/GIP RECEPTORS FOR LUNG DISEASE” (HANMI PHARM. CO., LTD., priority 2020, published 2023)
